# Where “and” joins values, the source holds several entries; their conditions need not be identical. Equal values may be shown once.
# B1: Eukaryotic translation initiation factor 2 subunit alpha wild type, P20459 (protein)
# chain: MSTSHCRFYENKYPEIDDIVMVNVQQIAEMGAYVKLLEYDNIEGMILLSELSRRRIRSIQKLIRVGKNDVAVVLRVDKEKGYIDLSKRRVSSEDIIKCEEKYQKSKTVHSILRYCAEKFQIPLEELYKTIAWPLSRKFGHAYEAFKLSIIDETVWEGIEPPSKDVLDELKNYISKRLTPQAVKIRADVEVSCFSYEGIDAIKDALKSAEDMSTEQMQVKVKLVAAPLYVLTTQALDKQKGIEQLESAIEKITEVITKYGGVCNITMPPKAVTATEDAELQALLESKELDNRSDSEDDEDESDDE
# Settings: Saccharomyces cerevisiae (strain ATCC 204508 / S288c), pH 7.5, 20 °C, Urea, HEPES 10 mM, NaCl 200 mM, reversible: Yes, whole UniProt chain shown
protein,measurement,setting,value
B1,denaturant m value,CD,0.88 kcal/mol/M and 0.98 kcal/mol/M
same,unfolding free energy,CD,2.45 kcal/mol and 2.95 kcal/mol and 4.61 kcal/mol
same,denaturant m value,Fluorescence,1.84 kcal/mol/M and 2.19 kcal/mol/M
same,unfolding free energy,Fluorescence,5.17 kcal/mol and 6.66 kcal/mol and 5.45 kcal/mol

# — FireProtDB (doi:10.1021/bi702211j)
